# Results taken from IntAct's records for PubMed 23393263.
# B1: Protein E6 (Bovine papillomavirus type 1), P06931 (parent)
# chain: MDLKPFARTNPFSGLDCLWCREPLTEVDAFRCMVKDFHVVIREGCRYGACTICLENCLATERRLWQGVPVTGEEAELLHGKTLDRLCIRCCYCGGKLTKNEKHRHVLFNEPFCKTRANIIRGRCYDCCRHGSRSKYP
# B2: Protein E6 (Human papillomavirus type 16), P03126 (parent)
# chain: MHQKRTAMFQDPQERPRKLPQLCTELQTTIHDIILECVYCKQQLLRREVYDFAFRDLCIVYRDGNPYAVCDKCLKFYSKISEYRHYCYSLYGTTLEQQYNKPLCDLLIRCINCQKPLCPEEKQRHLDKKQRFHNIRGRWTGRCMSCCRSSRTRRETQL
# Experiments:
# paxi_human PXN, P49023 [1] = variants of: B1; conditions: with paxi_human PXN
# paxi_human PXN, P49023 [2] = variants of: B1; conditions: with paxi_human PXN; remark: listed apart in the source
# [3] = variants of: B2; conditions: with ube3a_human UBE3A
# [4] = variants of: B2; conditions: with ube3a_human UBE3A; remark: listed apart in the source
# Chain of paxi_human PXN, P49023 (P49023 whole entry): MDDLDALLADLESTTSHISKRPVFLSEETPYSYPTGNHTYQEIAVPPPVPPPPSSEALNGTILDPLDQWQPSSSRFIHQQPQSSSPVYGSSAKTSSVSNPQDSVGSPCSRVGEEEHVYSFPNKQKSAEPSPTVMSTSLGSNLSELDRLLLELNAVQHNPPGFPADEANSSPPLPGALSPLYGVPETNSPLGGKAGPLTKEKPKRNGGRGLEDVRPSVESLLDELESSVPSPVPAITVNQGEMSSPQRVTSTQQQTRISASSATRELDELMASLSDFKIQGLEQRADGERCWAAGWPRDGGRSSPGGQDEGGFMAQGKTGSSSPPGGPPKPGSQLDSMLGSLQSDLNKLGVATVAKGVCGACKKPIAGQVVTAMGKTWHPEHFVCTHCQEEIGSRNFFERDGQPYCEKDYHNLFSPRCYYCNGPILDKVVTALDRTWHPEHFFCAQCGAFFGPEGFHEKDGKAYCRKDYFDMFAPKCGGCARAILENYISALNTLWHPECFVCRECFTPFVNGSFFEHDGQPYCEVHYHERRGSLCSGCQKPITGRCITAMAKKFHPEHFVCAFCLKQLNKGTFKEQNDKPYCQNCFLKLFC
variant,measurement,setting,value
MDLKPFARTNPFSGLDCLWCREPLTEVDAFRCMVKDFHVVIREGCRYGACTICLENCLATERRLWQGVPVTGEEAELLHGKTLDRLCIACCYCGGKLTKNEKHRHVLFNEPFCKTRANIIRGRCYDCCRHGSRSKYP [R89A],effect of a mutation on the interaction,"paxi_human PXN, P49023 [1]",decreasing interaction strength
same,effect of a mutation on the interaction,"paxi_human PXN, P49023 [2]",disrupting interaction strength
MDLKPFARTNPFSGLDCLWCREPLTEVDAFRCMVKDFHVVIREGCRYGACTICLENCLATERRLWQGVPVTGEEAELLHGKTLDRLCILCCYCGGKLTKNEKHRHVLFNEPFCKTRANIIRGRCYDCCRHGSRSKYP [R89L],effect of a mutation on the interaction,"paxi_human PXN, P49023 [1]",decreasing interaction strength
same,effect of a mutation on the interaction,"paxi_human PXN, P49023 [2]",disrupting interaction strength
MDLKPFARTNPFSGLDCLWCREPLTEVDAFRCMVKDSHVVIREGCRYGACTICLENCLATERRLWQGVPVTGEEAELLHGKTLDRLCIRCCYCGGKLTKNEKHRHVLFNEPFCKTRANIIRGRCYDCCRHGSRSKYP [F37S],effect of a mutation on the interaction,"paxi_human PXN, P49023 [1]",decreasing interaction strength
same,effect of a mutation on the interaction,"paxi_human PXN, P49023 [2]",disrupting interaction strength
MDLKPFARTNPFSGLDCLWCREPLTEVDAFRCMVKDFHVVIREGCRYGACTICLENCLATERRLWQGVPVTGEEAELLHGKTLDRLCIRCCYCGGKLTKNEKHRHVLFNEPFCKTGANIIRGRCYDCCRHGSRSKYP [R116G],effect of a mutation on the interaction,"paxi_human PXN, P49023 [1]",decreasing interaction strength
same,effect of a mutation on the interaction,"paxi_human PXN, P49023 [2]",disrupting interaction strength
MDLKPFARTNPFSGLDCLWCREPLTEVDAFRCMVKDFHVVIREGCRYGACTICLENCLATERRLWQGVPVTGEEAELLHGKTLDRLCIRCCYCGGKLTKNEKHRHVLFNEPFCKTDANIIRGRCYDCCRHGSRSKYP [R116D],effect of a mutation on the interaction,"paxi_human PXN, P49023 [1]",decreasing interaction strength
same,effect of a mutation on the interaction,"paxi_human PXN, P49023 [2]",disrupting interaction strength
MDLKPFARTNPFSGLDCLWCREPLTEVDAFRCMVKDFHVVIREGCRYGACTICLENCSATERRLWQGVPVTGEEAELLHGKTLDRLCIRCCYCGGKLTKNEKHRHVLFNEPFCKTRANIIRGRCYDCCRHGSRSKYP [L58S],effect of a mutation on the interaction,"paxi_human PXN, P49023 [1]",decreasing interaction strength
same,effect of a mutation on the interaction,"paxi_human PXN, P49023 [2]",disrupting interaction strength
MDLKPFARTNPFSGLDCLWCREPLTEVDAFRCMVKDFHVVIREGCRYGACTICLENCLATERRLWQGVPVTGEEAELLHGKTLDRLCIRCCYCGGKLTKNEKHRHVLFNEPFCKTRANIIGGRCYDCCRHGSRSKYP [R121G],effect of a mutation on the interaction,"paxi_human PXN, P49023 [1]",decreasing interaction strength
same,effect of a mutation on the interaction,"paxi_human PXN, P49023 [2]",disrupting interaction strength
MHQKRTAMFQDPQERPRKLPQLCTELQTTIHDIILECVYCKQQLLRREVYDFAFRDLCIVYRDGNPYAVCDKCLKFYSKISEYRHYCYSLYGTTLEQQYNKPLCDLLIACINCQKPLCPEEKQRHLDKKQRFHNIRGRWTGRCMSCCRSSRTRRETQL [R109A],effect of a mutation on the interaction,[3],disrupting interaction strength
same,effect of a mutation on the interaction,[4],decreasing interaction strength
MHQKRTAMFQDPQERPAKLPQLCTELQTTIHDIILECVYCKQQLLRREVYDFAFRDLCIVYRDGNPYAVCDKCLKFYSKISEYRHYCYSLYGTTLEQQYNKPLCDLLIRCINCQKPLCPEEKQRHLDKKQRFHNIRGRWTGRCMSCCRSSRTRRETQL [R17A],effect of a mutation on the interaction,[3],decreasing interaction strength
MHQKRTAMFQDPQERPRKLPQLCTELQTTIHDIILECVYCKQQLLRREVYDFAFRDECIVYRDGNPYAVCDKCLKFYSKISEYRHYCYSLYGTTLEQQYNKPLCDLLIRCINCQKPLCPEEKQRHLDKKQRFHNIRGRWTGRCMSCCRSSRTRRETQL [L57E],effect of a mutation on the interaction,[4],disrupting interaction strength
MHQKRTAMFQDPQERPRKLPQLCTELQTTIHDIILECVYCKQQLLRREVYDFAFRDACIVYRDGNPYAVCDKCLKFYSKISEYRHYCYSLYGTTLEQQYNKPLCDLLIRCINCQKPLCPEEKQRHLDKKQRFHNIRGRWTGRCMSCCRSSRTRRETQL [L57A],effect of a mutation on the interaction,[3],disrupting interaction strength
MHQKRTAMFQDPQERPRKLPQLCTELQTTIHDIILECVYCKQQLLRREVYDFAFRDLCIVYRDGNPYAVCDKCLKFYRKISEYRHYCYSLYGTTLEQQYNKPLCDLLIRCINCQKPLCPEEKQRHLDKKQRFHNIRGRWTGRCMSCCRSSRTRRETQL [S78R],effect of a mutation on the interaction,[3],decreasing interaction strength
MHQKRTAMFQDPQERPRKLPQLCTELQTTIHDIILECVYCKQQLLRREVYDFAFRDLCIVYRDGNPYAVCDKCLKFYSKISEYRHYCYSLYGTTLEQQYNKPLCDLLIRCINCQKPLCPEEKQRHLDKKQRFHNIRGAWTGRCMSCCRSSRTRRETQL [R138A],effect of a mutation on the interaction,[3],disrupting interaction strength
same,effect of a mutation on the interaction,[4],decreasing interaction strength
MHQKRTAMFQDPQERPRKLPQLCTELQTTIHDIILECVYCKQQLLRREVYDFAFRDLCIVYADGNPYAVCDKCLKFYSKISEYRHYCYSLYGTTLEQQYNKPLCDLLIRCINCQKPLCPEEKQRHLDKKQRFHNIRGRWTGRCMSCCRSSRTRRETQL [R62A],effect of a mutation on the interaction,[3],decreasing interaction strength
